Data on two molecules can be found in article PMC12866682 (2025).

In one assay the target is T96K TREM2 protein (UniProt Q9NZC2). The experiment in a line: solid-phase binding (SPB) assay; WT, R47H or T96K TREM2 immobilised, MPO in solution (n=5); method not described in the text shown.
The target of a further assay is T1, Purified human MPO (human, UniProt P05164 49-745).
T1 chain: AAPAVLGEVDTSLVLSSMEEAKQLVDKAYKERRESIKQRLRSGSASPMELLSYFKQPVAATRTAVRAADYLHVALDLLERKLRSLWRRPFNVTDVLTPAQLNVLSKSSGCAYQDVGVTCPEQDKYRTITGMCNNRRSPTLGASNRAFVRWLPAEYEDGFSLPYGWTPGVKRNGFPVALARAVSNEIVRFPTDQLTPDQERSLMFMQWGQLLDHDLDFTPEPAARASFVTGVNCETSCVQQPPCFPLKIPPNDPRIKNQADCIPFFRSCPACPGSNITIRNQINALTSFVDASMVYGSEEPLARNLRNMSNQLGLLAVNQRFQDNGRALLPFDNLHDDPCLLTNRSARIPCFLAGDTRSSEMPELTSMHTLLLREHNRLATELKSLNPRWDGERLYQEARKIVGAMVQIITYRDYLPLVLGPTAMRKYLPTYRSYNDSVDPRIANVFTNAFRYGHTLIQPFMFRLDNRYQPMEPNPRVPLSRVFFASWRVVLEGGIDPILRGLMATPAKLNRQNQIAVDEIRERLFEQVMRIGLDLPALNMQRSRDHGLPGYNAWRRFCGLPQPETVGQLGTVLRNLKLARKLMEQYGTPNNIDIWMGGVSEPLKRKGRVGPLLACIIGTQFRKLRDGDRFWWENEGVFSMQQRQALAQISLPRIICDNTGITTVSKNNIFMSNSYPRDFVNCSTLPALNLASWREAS
In words: SPR. Background: SPR reads the build-up and loss of mass on a sensor chip optically.

“Purified human MPO (from UniProt P05164 49-745) (ligand)”: the fold affinity over the WT or R47H TREM2 protein with T96K TREM2 protein was 1.3 fold.

B1: Purified human TREM2 protein (receptor)
chain: HNTTVFQGVAGQSLQVSCPYDSMKHWGRRKAWCRQLGEKGPCQRVVSTHNLWLLSFLRRWNGSTAITDDTLGGTLTITLRNLQPHDAGLYQCQSLHGSEADTLRKVLVEVLADPLDHRDAGDLWFPGESESFEDAHVEHSISRSLLEGEIPFPPTSILLLLACIFLIKILAASALWAAAWHGQKPGTHPPSELDCGHDPGYQLQTLPGLRDT
For orientation: Kd means the constant that tells how readily two partners part at equilibrium. Low values mean higher affinity, high ones lower affinity. In turn, B1 showed a dissociation constant Kd with Purified human MPO of 551 nM. In other words, the sub-micromolar range.
